In patent publication US20230082287A1, “METHODS OF TREATING AN INFLAMMATORY OR OBSTRUCTIVE AIRWAY DISEASE USING ANTI-TSLP ANTIBODY” (Novartis AG, priority 2020, published 2023):
Where two headings read alike, the source gives them in different places.

Experiments:
[1] = test system: late asthmatic response (LAR); assay: Published allergen challenge LAR data for budesonide/formoterol; format: in vivo; details: 400/12 μg; calculated from published data
From the text: Published data from other widely asthma treatment budosenide/formoterol (ICS/LABA, inhaled corticosteroid+long-acting beta agonist) combination was used in a similar fashion to calculate its efficacy and results compared with CSJ117 in Table 10.

[2] = test system: late asthmatic response (LAR); details: 400/12 μg; J ALLERGY CLIN IMMUNOL VOLUME 119, NUMBER 2, pp 322-327; cited from earlier work
[3] = First-in-human single ascending dose study: safety and tolerability; format: in vivo
Experimental: The safety, tolerability and PK of CSJ117 have been evaluated in healthy volunteers (HV) in a single ascending dose (SAD) study.
A first-in-human, randomized, subject-blind, placebo controlled, single ascending dose study was conducted to assess the safety, tolerability and pharmacokinetics of CSJ117 in adult healthy subjects. Single dose of 1 mg (Cohort 1), 3 mg (Cohort 2), 9 mg (Cohort 3), 32 mg (Cohort 4), 64 mg (Cohort 5), 160 mg (Cohort 6) or placebo was administered via inhalation.

[4] = GLP monkey toxicity study: dose and exposure multiples versus human 4 mg QD dose; format: in vivo, cynomolgus monkey
From the text: The rationale for a 12-week study treatment duration was based on the following: (i) the 12-week treatment period was warranted from a safety perspective given the data from the 13-week cynomolgus monkey toxicity study; (ii) the 12-week dosing period was anticipated to provide greater information on the PK profile of CSJ117 in humans (as compared to a shorter study duration); (iii) completing 12-weeks of dosing prior to dose escalation(s) provided greater safety information, as systemic exposure is expected to have achieved steady state; (iv) 12 weeks was expected to be sufficient duration to allow assessment of PD effects in the AIC.
Lung weight scaling was selected for the HED calculation due to the CSJ117-related changes in the respiratory tract and the lack of significant systemic side effects in the monkey toxicity studies. • Exposure multiples were also calculated to compare the observed systemic exposure in monkeys with the systemic exposure in humans, based on the observed single dose PK data in healthy subjects, assuming either linear or nonlinear PK. For multiple daily inhalations in humans, assuming linear and time-independent PK (i.e., a 2.4 fold accumulation ratio), the estimated human systemic exposure at steady state for a 4 mg dose was 948-fold below the monkey Day 91 systemic exposure.

[5] = test system: allergen inhalation challenge (AIC) in subjects with mild atopic asthma; assay: Phase 2a allergen bronchoprovocation study (LAR, EAR, FeNO); format: in vivo, human
From the text: CSJ117, as an inhaled Fab targeting TSLP, offers the potential to be an efficacious therapy for severe asthma with a favorable safety and tolerability profile. This study used inhaled allergen bronchoprovocation testing as a model for allergic asthma, in an effort to predict CSJ117 efficacy in the eventual severe asthma patient population. As a model for allergic asthma, standardized inhaled allergen bronchoprovocation testing can induce the acute and some of the more chronic features of asthma in human subjects with mild atopic asthma. In sensitized subjects, inhalation of a relevant allergen results in acute bronchoconstriction (the early asthma response or EAR [EAR defined as ≥20% fall in forced expiratory volume in 1 second (FEV1) between 0-2 hours after inhalation of allergen] Boulet et al 2007). In approximately 50% of subjects the EAR is followed by an inflammatory airway response with prolonged airway narrowing (the late asthma response or LAR [LAR defined as ≥15% fall in FEV1 between 3-7 hours after inhalation of allergen] Boulet et al 2007). In general, inhibition of the LAR in the allergen bronchoprovocation model is a good predictor of clinical efficacy in the moderate to severe asthma patient population (Diamant et al 2013). The objectives of this allergen bronchoprovocation study were to characterize the safety, tolerability, pharmacokinetics (PK) and pharmacodynamic (PD) effects of CSJ117 in subjects with mild atopic asthma over 12 weeks of treatment to determine if further clinical development is warranted.
(§1) This was a non-confirmatory, randomized, subject- and investigator-blinded, placebo-controlled, parallel-design, multi-center bronchoprovocation study. […] Two sequential dose cohorts were enrolled for this study. • Cohort 1: 24 subjects (12 active and 12 placebo) • Cohort 2a: 4 subjects (3 active and 1 placebo)
There was only one active dose used in the study, i.e. CSJ117 4 mg used for both Cohort 1 & 2a. Placebo subjects from all cohorts were pooled for analyses.
For all cohorts, the study consisted of a 35-day screening period, a baseline evaluation, a 12-week treatment period (consisting of a single dose on Day 1, safety evaluation Days 1-3 and commencement of QD dosing on Day 3) and a 30-day follow up period (FIG. 3).
On Day 1 (Visit 101) of the treatment period, after completion of all pre-dose assessments, subjects were randomized and received a single dose of CSJ117 or placebo in the morning and then underwent safety assessments, observation and PK sampling in-clinic for a period of 8 hours post-dose. On Day 2 (Visit 102), the subject returned to the clinic for evaluation and PK sampling. On Day 3 (Visit 103), the subjects returned to clinic for evaluation. On Day 3 (Visit 103) subjects took an inhaled dose of CSJ117 or placebo in the clinic. For the remaining duration of the 12-week treatment period, subjects took daily inhaled doses of CSJ117 or placebo, in the clinic on study visit days or at home. […]
Dog, cat, horse, mouse, cattle, rat and bird allergens were included in the challenge. Table 6 and Table 7 show the fall in FEV1 values and percentages, respectively, after the allergen challenges. […]
The early asthmatic response (EAR) after an allergen inhalation challenge on Day 42 and Day 84 was assessed by measuring the (1) area under the curve (AUC) time-adjusted percent fall in the FEV1, (2) maximum percent fall in the FEV1, and (3) minimum absolute FEV1 between 0 and 2 hours after […].

[6] = Phase 2a bronchoprovocation study: safety and tolerability; format: in vivo; details: 12 weeks
From the text: as §1
No adverse events (AE) imbalance observed across treatment groups. […] No subject discontinued study drug due to an adverse event. The most frequent treatment-emergent adverse events were headache, nasopharyngitis, and oropharyngeal pain.

[7] = test system: late asthmatic response (LAR); assay: Hill equation simulation of CSJ117 dose-response (LAR efficacy); parameters: species or system human; details: for Predicted efficacy: range over Emax scenarios; for ED50: Dose = 4 mg, E = 47.6%, Hill slope n = 1
Experimental: Simulation of Dose-Response Curves of CSJ117 from Doses Ranging from 0.5 to 8 mg:
% Efficacy of CSJ117 in PoC study compared to placebo was calculated using following formula: % E=[(B−A)/B]×100, where, E=Efficacy; A and B are LAR measured by max fall % FEV1 value in treated and placebo groups, respectively.
Maximum efficacy (Emax) of CSJ117 is unknown at this time and three potential values of Emax are possible:
From Emax and ED50 in each scenario above, a dose-response curve was generated using Hill equation to assess range of efficacy values resulting from 0.5 to 8 mg once daily dose of CSJ117 (FIGS. 6 and 7). Efficacy due to 0.5 mg and 8 mg once daily dose of CSJ117 is predicted to range from 10-35% and 65-88% of maximum effect, respectively. As visible in plots of FIGS. 6 and 7, the planned dose range of 0.5, 1, 2, 4, and 8 mg o.d. of CSJ117 during Ph2B (Example 4) is expected to adequately describe the dose-response for CSJ117.

[8] = in vivo
Experimental: Single dose of 1 mg (Cohort 1), 3 mg (Cohort 2), 9 mg (Cohort 3), 32 mg (Cohort 4), 64 mg (Cohort 5), 160 mg (Cohort 6) or placebo was administered via inhalation. First-in-human study was conducted in 51 healthy volunteers (HVs), of which 37 subjects were exposed to CSJ117 and 12 to placebo.
The PK analysis set for the FIH SAD Study included 37 subjects. PK samples were collected up to 28 days post dose.

[9] = human, in vivo, inhaled or intranasal, 32 mg
Experimental: (§2) In addition, the PK analysis set for the healthy Japanese SAD Study included 18 subjects, six subjects per single inhaled dose of 9, 16 and 32 mg administered via Concept 1 device.

[10] = Healthy Japanese SAD study: serum CSJ117 pharmacokinetics; details: cross-study comparison at 9 and 32 mg
Experimental: as §2

[11] = Day 42, 4 mg QD inhaled (N = 12)
[12] = Day 84, 4 mg QD inhaled (N = 13)
[13] = human, inhaled or intranasal, 1 mg
[14] = human, inhaled or intranasal, 3 mg
[15] = human, inhaled or intranasal, 9 mg
[16] = human, inhaled or intranasal, 32 mg
[17] = human, inhaled or intranasal, 64 mg
[18] = human, inhaled or intranasal, 160 mg

Budesonide/formoterol
E, % [(B-A)/B]*100 [1]: 80.2% | LAR B-A (placebo minus treatment), maximal fall % FEV1 [1]: 17 | LAR Treatment (A), maximal fall % FEV1 [2]: 4.2%

B1: CSJ117: potent neutralizing antibody fragment (Fab) directed against human TSLP; heavy chain SEQ ID NO: 9, light chain SEQ ID NO: 19 (antibody)
heavy: EVQLVESGGGLVKPGGSLRLSCAASGFTFSDYWMHWVRQAPGKGLEWVGHIKSKTDAGTTDYAAPVKGRFTISRDDSKNTLYLQMNSLKTEDTAVYYCAREIYYYAFDSWGQGTLVTVSSASTKGPSVFPLAPSSKSTSGGTAALGCLVKDYFPEPVTVSWNSGALTSGVHTFPAVLQSSGLYSLSSVVTVPSSSLGTQTYICNVNHKPSNTKVDKRVEPKSC
light: SYELTQPLSVSVALGQTARITCSGDNIGSKYVHWYQQKPGQAPVLVIYGDNERPSGIPERFSGSNSGNTATLTISRAQAGDEADYYCQAADWVDFYVFGGGTKLTVLGQPKAAPSVTLFPPSSEELQANKATLVCLISDFYPGAVTVAWKADSSPVKAGVETTTPSKQSNNKYAASSYLSLTPEQWKSHRSYSCQVTHEGSTVEKTVAPTECS
Subjects with adverse events (AEs) ([3]; 7/37 CSJ117 subjects, single inhaled doses 1-160 mg): 19 % of subjects | Deaths or serious adverse events ([3]; FIH study): no deaths or serious adverse events | Accumulation ratio in humans ([4]; cynomolgus monkey, in vivo): 2.4 fold | Systemic accumulation ratio observed in monkeys ([4]; cynomolgus monkey, in vivo): 148 fold | Dose multiple: human equivalent dose of monkey NOAEL versus 4 mg QD ([4]; lung weight scaling): 51.5 fold | E, % [(B-A)/B]*100 ([5]; CSJ117 4 mg OD, LAR max fall % FEV1): 47.6% | LAR B-A (placebo minus treatment), Max fall % FEV1 ([5]; CSJ117 4 mg OD, PoC study): 8.42 | LAR Treatment (A), Max fall % FEV1 ([5]; CSJ117 4 mg OD, PoC study): 9.28% | LAR time adjusted AUC 3-7 h, Difference (CSJ117-Placebo) (Table 6) ([5]; Day 42, 4 mg QD): −2.64% | LAR time adjusted AUC 3-7 h, Difference (CSJ117-Placebo) (Table 7) ([5]; Day 42, 4 mg QD): −2.90% | LAR time adjusted AUC 3-7 h, Difference (CSJ117-Placebo) (Table 8) ([5]; Day 42, 4 mg QD): −1.02% | LAR time adjusted AUC 3-7 h, Difference (CSJ117-Placebo) (Table 9) ([5]; Day 42, 4 mg QD): −4.70% | LAR time adjusted AUC 3-7 h, model-based mean estimate (Table 6) [5, 11]: 13.11% | LAR time adjusted AUC 3-7 h, model-based mean estimate (Table 7) [5, 11]: 6.46% | LAR time adjusted AUC 3-7 h, model-based mean estimate (Table 8) [5, 11]: 15.11% | LAR time adjusted AUC 3-7 h, model-based mean estimate (Table 9) [5, 11]: 27.85% | LAR time adjusted AUC 3-7 h, Difference (CSJ117-Placebo) (Table 6) ([5]; Day 84, 4 mg QD): −8.42% | LAR time adjusted AUC 3-7 h, Difference (CSJ117-Placebo) (Table 7) ([5]; Day 84, 4 mg QD): −7.18% | LAR time adjusted AUC 3-7 h, Difference (CSJ117-Placebo) (Table 8) ([5]; Day 84, 4 mg QD): −4.26% | LAR time adjusted AUC 3-7 h, Difference (CSJ117-Placebo) (Table 9) ([5]; Day 84, 4 mg QD): −5.41% | LAR time adjusted AUC 3-7 h, model-based mean estimate (Table 6) [5, 12]: 9.28% | LAR time adjusted AUC 3-7 h, model-based mean estimate (Table 7) [5, 12]: 4.20% | LAR time adjusted AUC 3-7 h, model-based mean estimate (Table 8) [5, 12]: 12.83% | LAR time adjusted AUC 3-7 h, model-based mean estimate (Table 9) [5, 12]: 25.48% | minimum absolute FEV1 between 3 and 7 hours compared with placebo ([5]; Day 84, p-value of 0.050): statistically less | AUC of the time-adjusted fall in FEV1 during the late response ([5]; day 84, 4 mg daily inhalation, vs placebo 11.38%, p=0.008): 4.20% | maximum fall % FEV1 during the late response ([5]; day 84, 4 mg daily inhalation, vs placebo 17.70%, P=0.029): 9.28% | fractional exhaled nitric oxide (FeNO) compared with placebo ([5]; over the 12-week treatment period, 4 mg QD): trend for a reduction | Severe or serious adverse events ([6]; 4 mg QD): No subject developed a severe or serious adverse event | Safety and tolerability ([6]; mild asthmatics, 4 mg QD): safe and well tolerated | rate of moderately severe adverse events ([6]; subjects receiving CSJ117 4 mg QD): 21.6% | Predicted efficacy ([7]; 0.5 mg once daily dose): 10-35 % of maximum effect | Predicted efficacy ([7]; 8 mg once daily dose): 65-88 % of maximum effect | ED50 ([7]; Scenario 1: Emax 100%): 4.4 mg | ED50 ([7]; Scenario 2: Emax 80%): 2.3 mg | ED50 ([7]; Scenario 3: Emax 60%): 1.0 mg | mean terminal elimination half-life (T1/2) ([8]; human, inhaled or intranasal): 17.4 to 21.1 h | median time to achieve maximum CSJ117 serum concentration (Tmax) ([8]; human, inhaled or intranasal): 6 to 21 h | AUClast [8, 13]: 109 ng·h/mL | Cmax [8, 13]: 5.90 ng/mL | T1/2 [8, 13]: 18.5 h | Tmax [8, 13]: 21.0 h | AUClast [8, 14]: 127 ng·h/mL | Cmax [8, 14]: 5.65 ng/mL | T1/2 [8, 14]: 18.7 h | Tmax [8, 14]: 12.0 h | AUCinf [8, 15]: 597 ng·h/mL | AUClast [8, 15]: 353 ng·h/mL | CL/F [8, 15]: 15.6 L/h | Cmax [8, 15]: 12.5 ng/mL | T1/2 [8, 15]: 21.1 h | Tmax [8, 15]: 12.0 h | Vz/F [8, 15]: 481 L | AUCinf [8, 16]: 1710 ng·h/mL | AUClast [8, 16]: 1610 ng·h/mL | CL/F [8, 16]: 22.0 L/h | Cmax [8, 16]: 57.6 ng/mL | T1/2 [8, 16]: 17.4 h | Tmax [8, 16]: 6.00 h | Vz/F [8, 16]: 555 L | AUCinf [8, 17]: 2650 ng·h/mL | AUClast [8, 17]: 2500 ng·h/mL | CL/F [8, 17]: 28.5 L/h | Cmax [8, 17]: 61.4 ng/mL | T1/2 [8, 17]: 20.1 h | Tmax [8, 17]: 12.0 h | Vz/F [8, 17]: 815 L | AUCinf [8, 18]: 5750 ng·h/mL | AUClast [8, 18]: 5590 ng·h/mL | CL/F [8, 18]: 33.0 L/h | Cmax [8, 18]: 152 ng/mL | T1/2 [8, 18]: 18.2 h | Tmax [8, 18]: 9.00 h | Vz/F [8, 18]: 915 L | CSJ117 serum exposure versus dose [8]: increased in a dose-dependent manner | mean T1/2 [9]: 18.6 to 22.4 h | AUCinf in Japanese relative to non-Japanese subjects [10]: 0.6-1.5 fold | Cmax in Japanese relative to non-Japanese subjects [10]: 0.5-1.1 fold
